Earlier results in article PMC9871372.
pKd: −log10 of the molar value.

Target: NisA precursor peptide (Lactococcus lactis) (UniProt P13068)
Chain of UniProt P13068 (P13068 24-57): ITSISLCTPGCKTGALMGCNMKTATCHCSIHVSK

NisB (from UniProt P20103)
pKd: 5.98
